Substrate in the data set: CCCCCCCCCCCCCCCC(=O)Oc1ccc([N+](=O)[O-])cc1
The experiment in a line: p-NPP hydrolysis, Lineweaver-Burk. In kind it is biochemical, Thermomyces lanuginosus. Particulars: free enzyme; p-NPP 0.05-0.5 mg/mL. An excerpt:
p-NPP hydrolysis, Lineweaver-Burk on Thermomyces lanuginosus lipase (TLLs)

B1: Thermomyces lanuginosus lipase (TLLs) (Thermomyces lanuginosus) (protein)
chain: EVSQDLFNQFNLFAQYSAAAYCGKNNDAPAGTNITCTGNACPEVEKADATFLYSFEDSGVGDVTGFLALDNTNKLIVLSFRGSRSIENWIGNLNFDLKEINDICSGCRGHDGFTSSWRSVADTLRQKVEDAVREHPDYRVVFTGHSLGGALATVAGADLRGNGYDIDVFSYGAPRVGNRAFAEFLTVQTGGTLYRITHTNDIVPRLPPREFGYSHSSPEYWIKSGTLVPVTRNDIVKIEGIDATGGNNQPNIPDIPAHLWYFGLIGTCL
notes: commercial free lipase from Novozymes
As usually defined, the Km is the concentration of substrate that gives half-maximal velocity. As a reminder, the kcat is the number of substrate molecules converted per active site and unit of time at saturation. For B1, the Km was 1396 µM and the kcat came to 22800 s⁻¹.

The values above are taken from publication PMC10991105.
